Source: patent US20210079110A1 (SCHOOL JURIDICAL PERSON THE KITASATO INSTITUTE, published 2021)

Assays:
[1] = target: T1, Kitakyushu lung cancer antigen-1 (KK-LC-1) protein (human (tissue slices of patients), UniProt Q5H943 1-113); experiment: immunohistochemical staining of formaldehyde-fixed tissue slices
T1 construct: Endogenous protein in formaldehyde-fixed tissue slices (testis, seminoma, gastric tissue) stained by immunohistochemistry; also called NP_001017978.1
T1 sequence: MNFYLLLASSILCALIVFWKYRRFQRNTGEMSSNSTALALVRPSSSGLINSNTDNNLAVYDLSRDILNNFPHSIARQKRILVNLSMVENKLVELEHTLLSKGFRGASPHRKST
Text: Tissue slices of a normal region and a tumor region of a patient suffering from a testicular tumor and tissue slices of a normal region and a tumor region in a gastric tissue of a patient suffering from a gastric cancer, which are fixed with formaldehyde, were stained by using the produced monoclonal antibodies.

[2] = target: T2, LSMVENKLVELEHTL (SEQ ID NO: 63); experiment: peptide array of 15-mers, antibody diluted to 1/100 and 1/500
T2 construct: 15-residue KK-LC-1 peptide of the peptide array
T2 peptide: LSMVENKLVELEHTL
Text: (§1) An antigen of the monoclonal antibody produced by the hybridoma cell line (accession number: NITE BP-02527) was identified by epitope mapping. Specifically, first, 73 types of 15-amino acid residue peptides in which a position on an N-terminus side was shifted by one amino acid residue each were synthesized based on the amino acid sequence of the KK-LC-1 protein to produce a peptide array. Amino acid sequences of the 73 types of peptides are shown in SEQ ID NOs: 13 to 85, respectively.
(§2) Subsequently, the peptide array was reacted with a monoclonal antibody to identify peptides having reactivity. The monoclonal antibody was diluted to 1/100 and 1/500 and the resultants were each reacted.

SEQ ID NO 65 = target: T3, SEQ ID NO 65; experiment: as above
T3 construct: 15-residue KK-LC-1 peptide of the peptide array
T3 peptide: MVENKLVELEHTLLS
Text: as §1, §2

[3] = target: T4, VELEHTLLSKGFRGA (SEQ ID NO: 71); experiment: as above
T4 construct: 15-residue KK-LC-1 peptide of the peptide array
T4 peptide: VELEHTLLSKGFRGA
Text: as §1, §2

SEQ ID NO 70 = target: T5, SEQ ID NO 70; experiment: as above
T5 construct: 15-residue KK-LC-1 peptide of the peptide array
T5 peptide: LVELEHTLLSKGFRG
Text: as §1, §2

SEQ ID NO 69 = target: T6, SEQ ID NO 69; experiment: as above
T6 construct: 15-residue KK-LC-1 peptide of the peptide array
T6 peptide: KLVELEHTLLSKGFR
Text: as §1, §2

SEQ ID NO 68 = target: T7, SEQ ID NO 68; experiment: as above
T7 construct: 15-residue KK-LC-1 peptide of the peptide array
T7 peptide: NKLVELEHTLLSKGF
Text: as §1, §2

SEQ ID NO 66 = target: T8, SEQ ID NO 66; experiment: as above
T8 construct: 15-residue KK-LC-1 peptide of the peptide array
T8 peptide: VENKLVELEHTLLSK
Text: as §1, §2

SEQ ID NO 64 = target: T9, SEQ ID NO 64; experiment: as above
T9 construct: 15-residue KK-LC-1 peptide of the peptide array
T9 peptide: SMVENKLVELEHTLL
Text: as §1, §2

SEQ ID NO 67 = target: T10, SEQ ID NO 67; experiment: as above
T10 construct: 15-residue KK-LC-1 peptide of the peptide array
T10 peptide: ENKLVELEHTLLSKG
Text: as §1, §2

[4] = target: T11, peptide having the amino acid sequence set forth in SEQ ID NO: 1; experiment: ELISA on immobilized peptide (Experimental Example 2) and absorption operation (Experimental Example 4)
T11 construct: Immunogen; immobilized on a 96-well plate in the ELISA and used for the absorption operation at 0.05 mg/mL; also called immunized peptide; peptide used for the immunization of the mouse
T11 peptide: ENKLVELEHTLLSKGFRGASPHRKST
Procedure: Reactivity of a monoclonal antibody was confirmed by an ELISA method using an immunized peptide as an antigen. Specifically, first, the peptide having the amino acid sequence set forth in SEQ ID NO: 1 was immobilized on a 96-well plate. Moreover, as a control, a 96-well plate in which only blocking was performed without immobilizing the peptide was used. A skim milk solution was used for the blocking.
Subsequently, the 96-well plate was blocked, a culture supernatant of each established hybridoma cell line was added thereto, and a reaction was performed. Moreover, for comparison, wells reacted with a normal mouse serum were also prepared. Next, the unreacted monoclonal antibody was washed off, the resultant was reacted with an anti-mouse secondary antibody, and a chromogenic substrate was added to develop color. Then, absorbance of each well was measured using a plate reader.
For the absorption operation of the monoclonal antibody, the peptide having the amino acid sequence set forth in SEQ ID NO: 1 was used at a final concentration of 0.05 mg/mL. Moreover, the absorption operation was performed overnight at 4° C. [0090] (a) to (d) of FIG. 3 are photographs showing results of immunohistochemical staining. In each case, a magnification was 200 times. […]

Measured: binding result

B1: monoclonal antibody produced by the hybridoma cell line having an accession number of NITE BP-02527 (antibody, V domains shown)
VH: EVQLQQSGPELVKPGASVKMSCKTSGYTSTEYTMHWVKQSHGQSLEWIGVIYPNNGDTSYNQKFRGKATLTVDKSSNTAYMELRSLTSEDSAVYYCARLGWQGFANWGQGTLVTVSA
VL: DIVMTQAAPSVPVTPGESVSISCRSSKSLLHSNGNTFLYWFLQRPGQSPQLLIYRMSNLASGVPDRFSGSGSGTAFTLRISRVEAEDVGVYYCMQHLEYPLTFGAGTKLELK
notes: Mouse hybridoma antibody, used as culture supernatant; also called 34B3; 277 34B3 20170123
binds: all assays above
